In the supplement of paper PMC9876800:

Test system: peptide library, one residue held at a place counted from the S/T acceptor
Experiment: relative phosphorylation of the sub-library (ratio to the mean residue at this position); human; higher = residue favoured
Summary of the method: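 In 384-well plates, purified recombinant kinases (human or orthologue constructs) were incubated for 90 min under kinase-specific conditions with 50 μM biotinylated degenerate peptide sub-libraries and 50 μM ATP spiked with γ-32P-ATP. Each sub-library fixed a single residue at one position around a central Ser/Thr. Relative sub-library phosphorylation, measured by phosphorimaging and densitometry of streptavidin membrane spots, is given as a ratio to the mean residue at that position.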

STK39, construct: Full length (from UniProt Q9UEW8)
relative phosphorylation
Conditions | at +1 | at +2 | at +3 | at +4 | at -1 | at -2 | at -3 | at -4 | at -5
A fixed | 0.382 | 0.623 | 0.889 | 0.918 | 0.783 | 0.729 | 0.996 | 1 | 1.13
D fixed | 0.233 | 0.398 | 0.795 | 0.812 | 1.29 | 1.04 | 1.1 | 1.47 | 1.27
E fixed | 0.266 | 0.234 | 0.96 | 0.651 | 1.05 | 0.826 | 0.895 | 1.36 | 1.07
F fixed | 1.17 | 0.908 | 0.901 | 0.899 | 0.908 | 1.05 | 0.783 | 0.88 | 0.983
G fixed | 0.24 | 0.824 | 1.06 | 1.27 | 0.606 | 0.888 | 0.933 | 1.2 | 1.07
H fixed | 1.01 | 4.16 | 1.32 | 0.999 | 1.62 | 1.44 | 1.47 | 1.07 | 0.932
I fixed | 2.61 | 0.696 | 0.654 | 0.739 | 0.638 | 0.409 | 0.615 | 0.672 | 0.679
K fixed | 0.432 | 0.55 | 0.862 | 1.15 | 0.818 | 0.414 | 0.61 | 0.771 | 0.927
L fixed | 1.56 | 0.65 | 1.01 | 0.921 | 1.32 | 0.721 | 0.646 | 0.76 | 0.619
M fixed | 1.33 | 0.873 | 1.05 | 0.952 | 1.18 | 0.744 | 0.763 | 0.832 | 0.866
N fixed | 0.453 | 1.08 | 1.27 | 1.18 | 1.34 | 1.29 | 1.59 | 1.02 | 0.95
P fixed | 0.175 | 0.523 | 0.906 | 1.14 | 0.49 | 0.539 | 0.937 | 1.05 | 1.24
Q fixed | 0.661 | 1.03 | 1.19 | 1.19 | 0.963 | 1.91 | 1.09 | 0.959 | 0.892
R fixed | 0.517 | 0.824 | 1.06 | 1.18 | 1.04 | 0.529 | 0.677 | 0.831 | 0.96
V fixed | 1.84 | 1.04 | 0.72 | 0.694 | 0.584 | 0.457 | 0.623 | 0.769 | 0.911
W fixed | 2.89 | 0.987 | 1.16 | 1.37 | 1.06 | 1.17 | 1.03 | 1.18 | 1.17
Y fixed | 1.23 | 1.61 | 1.19 | 0.933 | 1.3 | 2.84 | 2.24 | 1.17 | 1.34
pThr fixed | 0.677 | 0.474 | 0.767 | 0.493 | 0.867 | 0.793 | 1.11 | 1.19 | 1.25
pTyr fixed | 0.614 | 0.352 | 1 | 0.586 | 1.77 | 1.16 | 1.02 | 1.25 | 1.45
